In the RNAGym collection of RNA variant scans (doi:10.1093/molbev/msab373):

B1: Azoarcus group I ribozyme (parent)
chain: GUGCCUUGCGCCGGGAAACCACGCAAGGGAUGGUGUCAAAUUCGGCGAAACCUAAGCGCCCGCCCGGGCGUAUGGCAACGCCGAGCCAAGCUUCGGCGCCUGCGCCGAUGAAGGUGUAGAGACUAGACGGCACCCACCUAAGGCAAACGCUAUGGUGAAGGCAUAGUCCAGGGAGUGGCGAAAGUCACACAAACCGG

Variants of: B1
Assay: reverse-splicing fitness (ratio to wild type); higher = more active; in vitro selection; Mg2+ level not given
Procedure, shortened: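 An in vitro group I ribozyme library with randomized positions was T7-transcribed and gel-purified. In triplicate, 10 pmol RNA in EPPS pH 7.5 was reacted with 50 pmoles of a 30-nt RNA substrate for 1 h at 37 °C across several added MgCl2 levels (1–48 mM), then stopped with EDTA. Products were reverse transcribed from a substrate-complementary primer, PCR-amplified and sequenced (HiSeq 4000). Fitness is a variant's read proportion after selection over that before, normalised to wild type.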

| Variant | reverse-splicing fitness |
| --- | --- |
| C82G A111U A145G C150A C169U U176A | 0.0166 |
| C82G A111U A145G C150A C169U U176G | 0.00791 |
| C82G A111U A145G C150A C169U U176C | 0.0149 |
| C82G A111U A120U A145U C150A C169U U176A | 0.00313 |
| C82G A111U A120U A145U C150A C169U U176C | 0.00276 |
| C82G A111U A120U A145U C150A C169U U176G | 0.00195 |
| C82G A111U A120U A145C C150U | 0.0116 |
| C82G A111U A145C C150U C169G U176C | 0.0132 |
| C82G A111U A145C C150U C169G U176G | 0.00635 |
| C82G A111U A145C C150U C169G U176A | 0.022 |
| C82G A111U A120U A145U C150A C169A U176A | 0.00349 |
| C82G A111U A120U A145U C150A C169A U176C | 0.00255 |
| C82G A111U A120U A145U C150A C169A U176G | 0.00209 |
| C82G A111U A120U A145U C169A U176C | 0.00203 |
| C82G A111U A120U A145U C169A U176G | 0.00176 |
| C82G A111U A120U A145U C169A U176A | 0.00292 |
| C82G A111U A120U A145G C169G U176A | 0.00533 |
| C82G A111U A120U A145G C169G U176G | 0.00172 |
| C82G A111U A120U A145G C169G U176C | 0.00515 |
| C82G A111U A145C C150G C169U | 0.00915 |
| C82G A111U A145C C150G C169A | 0.00892 |

| Variant | reverse-splicing fitness |
| --- | --- |
| C82G A111U A145C C150G C169G | 0.00784 |
| C82G A111U A120U A145U C169G U176A | 0.00265 |
| C82G A111U A120U A145U C169G U176G | 0.00186 |
| C82G A111U A120U A145U C169G U176C | 0.0026 |
| C82G A111U A120U A145U C150G C169G U176C | 0.00282 |
| C82G A111U A120U A145U C150G C169G U176A | 0.0031 |
| C82G A111U A120U A145U C150G C169G U176G | 0.0021 |
| C82G A111U A145G C150G C169U U176A | 0.0125 |
| C82G A111U A145G C150G C169U U176G | 0.00808 |
| C82G A111U A145G C150G C169U U176C | 0.0134 |
| C82G A111U A120U A145G C150G C169U U176A | 0.0076 |
| C82G A111U A120U A145G C150G C169U U176C | 0.00721 |
| C82G A111U A120U A145G C150G C169U U176G | 0.00391 |
| C82G A111U A120U C150G C169U U176A | 0.00329 |
| C82G A111U A120U C150G C169U U176G | 0.00257 |
| C82G A111U A120U C150G C169U U176C | 0.00541 |
| C82G A111U A120U A145G C150A C169A | 0.00617 |
| C82G A111U A120U A145G C150A C169U | 0.00464 |
| C82G A111U A120U A145G C150A C169G | 0.00555 |
| C82G A111U A120U A145U C169U | 0.00419 |
| C82G A111U A120U A145U C169G | 0.00331 |

| Variant | reverse-splicing fitness |
| --- | --- |
| C82G A111U A120U A145U C169A | 0.00258 |
| C82G A111U A120U A145G | 0.043 |
| C82G A111U A120U A145U | 0.0429 |
| C82G A111U A120U C150A C169G | 0.00506 |
| C82G A111U A120U C150A C169U | 0.00448 |
| C82G A111U A120U C150A C169A | 0.0047 |
| C82G A111U A120U U176A | 0.0109 |
| C82G A111U A120U U176G | 0.00464 |
| C82G A111U A120U U176C | 0.0167 |
| C82G A111U A120U A145G C150U U176C | 0.0151 |
| C82G A111U A120U A145G C150U U176A | 0.0103 |
| C82G A111U A120U A145G C150U U176G | 0.00433 |
| C82G A111U A120U C150U C169U U176A | 0.0052 |
| C82G A111U A120U C150U C169U U176C | 0.00402 |
| C82G A111U A120U C150U C169U U176G | 0.00215 |
| C82G A111U A145C C150U U176A | 0.0473 |
| C82G A111U A145C C150U U176G | 0.0188 |
| C82G A111U A145C C150U U176C | 0.0544 |
| C82G A111U A120U A145C C150G U176C | 0.00425 |
| C82G A111U A120U A145C C150G U176G | 0.00236 |
| C82G A111U A120U A145C C150G U176A | 0.00296 |

| Variant | reverse-splicing fitness |
| --- | --- |
| C82G A111U A145G C150G C169G U176A | 0.0107 |
| C82G A111U A145G C150G C169G U176C | 0.0129 |
| C82G A111U A145G C150G C169G U176G | 0.0062 |
| C82G A111U A145C U176G | 0.0756 |
| C82G A111U A145C U176A | 0.19 |
| C82G A111U A145C U176C | 0.224 |
| C82G A111U A145C C150A U176G | 0.00844 |
| C82G A111U A145C C150A U176C | 0.0187 |
| C82G A111U A145C C150A U176A | 0.0163 |
| C82G A111U A120U A145C C169U | 0.00386 |
| C82G A111U A120U A145C C169A | 0.00222 |
| C82G A111U A120U A145C C169G | 0.00383 |
| C82G A111U A120U A145U C150A C169G U176C | 0.003 |
| C82G A111U A120U A145U C150A C169G U176A | 0.00335 |
| C82G A111U A120U A145U C150A C169G U176G | 0.00186 |
| C82G A111U A120U C150G C169A | 0.00722 |
| C82G A111U A120U C150G C169U | 0.00549 |
| C82G A111U A120U C150G C169G | 0.0064 |
| C82G A111U A120U C169U U176C | 0.00393 |
| C82G A111U A120U C169U U176G | 0.00182 |
| C82G A111U A120U C169U U176A | 0.00485 |
